Test results taken from a protein production outcome set (Wang et al. 2014).

Assay: label from the status in PepcDB records
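Note: failed if final PepcDB status was selected cloned or expressed and not failed if soluble or beyond.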

| Sequence | protein production |
| --- | --- |
| MTEPANNHPSPPPQNWLFKWWNSLNAITRLLVLVLGAPLMVLNARALSSIFGYFESLFVISLIASVIAFLLNYPVAWLEKQGAKRFVAASFVFLTALIIFTALGVTLIPLALSQAQQLVARLPDWLDSGQKQLVLLDQKAEILGWPVNFDGLIPQINSRLAAELQNLAGSTLNLALSLTVFTVVRLLDVLLTIILTFYLLLHTDDVWQSIIGWLPERFQKPFSDTLRRSFQNYFLGQLVSATCMALGLISGFLLLKVPFGLLFGLTVGVMALIPFGGSVGIVLVTFLVALRDIGMALQLLAVALVIQQIVENGIAPRVLGSVTGLNPFWVLISLLTGARIGGLLGVIVAVPSAVMIKEALGAIRSMKPLVPAPDHNQDPLYFKNQEEVQPLPPRP | failed |
| MTEQAQYRDPRLVILYDRLNRWGADDDFFLALANETPGCRLLDLGCGTGRLTTALARAGHQVTGLEPARASLEVAQRKPGAEAVCWLQGSAQDAPTAAFDLCLMTAHVAQVFVEDDAWQDVLQHIHRALVPGGRLSFDMRDPAARAWDTWDSAGKRERLTLLDGSEAETWCDVLDVAGPIVSGPVVHFAEHTRFLPGQDVLTSTSRLRFRREDELRASLQAAGFAVEQVYGGWHGEPVGTGCGELVVVARRPG | failed |
| MTESFTRRERLRLRRDFLLIFKEGKSLQNEYFVVLFRKNGLDYSRLGIVVKRKFGKATRRNKLKRWVREIFRRNKGVIPKGFDIVVIPRKKLSEEFERVDFWTVREKLLNLLKRIEG | not failed |
| MTESNFDLPIISVIIPAYNCEKTIKKTIDSVLDQSFTDFELIVINDGSQDATLDIVSQIEDSRIKIFSFENAGGNVSRNRGLNLAVGKFISFLDADDIWTPNKLESQLEALHNNPGFHVAYSWTDYIDEDGNFLISGRRVTLNGDVYKKLFINNFLENGSNPLICKEALIALGGFDESLKAAQDWDMWLRLANKYSFVAVPYVQILYRVSSNSLSSNLVRQEKACKQVLEKAYQARPAIGNHILHLSIANLYKYLACKALQKPYSRSKGLAAVKFIWQYFLYDSSRMRRINSTLKLLFKALIIIILPAGLSTELLAKMRTKSLNPQLSAISGS | failed |
| MTETNESSGVNLKKDVKFSIIIPAHNEEKYIRKCLDSIAKASEAYKEQTEVIVVLNRCTDKTEEIAKSYNCVTLKNNDKNLSKIRNAGAKIANGEIIVTIDADTIMTESMLSNVDKYLASGKYIGGGVNGKFERISLGIFLSAMLIIIPLLFKYGAISVGIFWCYRKDFMAINGFNENMLMAEDADFAKRLKEWGKKNNKKFGTIKNGMITSCRRFDTYGDWTLLKNPKVILAYLKGNDRKYADKTYYDNQER | failed |
| MTETYVLAESPEFYQDNVTDYTGQISSSDITNIQAAIDDVKASEQKVIFVVFLSSFDGVDPETWTQQALQANGGGNVLIYALAPEERQYGIQGGTQWTDAELDAANNAAFQALSQEDWAGSALEHHHHHH | not failed |
| MTEYVHGYSEREALRLSEQAETLEKLLHHDTVYPPGAKVLEAGCGIGAQTVILAKNNPDAEITSIDISPESLEKARENTEKNGIKNVKFLQANIFSLPFEDSSFDHIFVCFVLEHLQSPEEALKSLKKVLKPGGTITVIEGDHGSCYFHPEGKKAIEAWNCLIRVQAYMKGNSLVGRQIYPLLQESGFEKIRVEPRMVYIDSSKPELVDGFILKTIIPMVEGVKEQSLKMQIIKEEEWEKGIEELHKTAEHGGTFCYTFFKGWGTK | failed |
| MTFLDKIKQGCLDGWAKYKILPSLTAAQTILESGWGKHAPHNALFGIKADSSWTGKSFDTKTQEEYQAGVVTDIVDRFRAYDSWTDSIIDHGKFLNDNPRYQAVIGETDYKKACHAIKDAGYATASGYAELLIQLIEENDLQEWDEEAIVRKEKQMISSQCREVIEFFINLVNAGVGVDKDGFAGWQCTDVPCYAAKHWFGVDLWGNAIDLLDSAAAVGWEVHRMPTDANPQTGAFFVQSVPYHQFGHTGVVIEDSDGYTMRTIEQNIDGNPDALYVGAPARFNTRDFTGVTGWFYPPYQGDIVTQPVSTEPQTSDTIVETAKTGTFTLDVAEINIRRWPSLTSEVVGSYKQGDTISFDSEGYANGYYWISYVGGSGMRNYTAIGITDKDGNIISLWGKLNLEHHHHHH | not failed |
| MTFTSNLPSSSEQSISPPASSFSSSTDTLKDIDIPHNGADLSTYSKFLALYCRSDKCDDFYSLEEKQNCKFGDQWLDFINTIHNLDFSESEVSGRVSERILPASLANKFTNNLGVAIKISEYTRDDERQIRGCVTTVENENSFNNWFVYHILDQSQLSLSEHPIVTKEVKYHELFADFFEKNLKNTIVNDQWNFGGRDYFIERSRYFTDRYLRIECILPAFPCKSSNEQKVYGSVPDKGEELALKRLIKATQDLVKIYPPGMKIWIVSDGHVFSDCIGVDDDVVSTYTTKLHELYKRVAIPGVDAIGFCGLNDLFFSGAASKVFDPKWVSDVEVAHYTGTQICPKSDLSRQILMKGCDTDAGRLRKQIAIEGHPRLHLYRGFSRFMMEDLSLLEHFQSYSRKKFKKIISMIAFNMIKRNDAYSNLVELIFPHHLRISIHAHTNSGPKFGIKVISNEQCSIVSSLEDLDEPKFEDFLHIPTPWHNCVVKVEDEKEKYFLTKSKVVKEALEKGMYDGVWKDTRFDIGEGGHFVIKKIS | failed |
| MTGEEITAAIHQVLTERMNNRHLDGFGPQSRLNADLYLDSVLMLDLLLHLELDHGITAPEEAIATAAIQTVSDLVELLAGASPATSGASDTAVADGPDVHADVYPDIKVHCVVSCLCDAVKAAGLDHRPMYFGIWDADFAVSDKFELRYHTDHISHGFFCHWFHRLYGVRVTEWYDHSAGKQSNLARLIGLVDARRPTESVMVMLDMFHLPERENKFNQYPFPHYLMVEATPDPETWQVRDPDFRWEGPIAKERILNAVAQPSVGGGYIFDRCTMRLPAAVDIGDYFLACFVSDDNPLIRRLREIVDTHLGCRDGLRLQALGDAVRELPVLSIRKWAYEHGFAFFWRELRLPNDAFLTWCDRIEELALGLPALHLKILRLAQTEDRTCAADIHQTLDRLDALETAIKVKLHEVFVAWCSHQGLTRATPRERRVGAR | failed |
| MTGIFLQAFVYLVAAVIAVPLAKRLGLGSVLGYLIAGVVIGPIIGLVGEETTTIQHFAEFGVVMMLFLVGLELEPKMLWAMRNRLMGLGGLQVGGTVAAIMGIALYFEQPWTIALAIGLIFALSSTAIVLQTFSEKGLTKTEGGKNAFSVLLFQDIAVIPMLAFIPLLALPELVEQAQNAVQTAAQHHDDLNLVADLPGWAYGIVITASIAIVVVGGHFLSRPLLKYVASSGLREIFTATALMLVIGIAALMSLVGLSPALGTFLAGVVLANSEFRHELESNIEPFKGLLLGLFFITVGAGINFSVLFGDFWLIMALTIGVMVLKALVLFILALIFRVKGSNRWLFTLSLAQAGEFGFVLLSFSVQNHVIPFELSQTLALVVAISMFLTPGLFILFDRVILPRFETQSNERESDTIEETGTVIIAGIGRFGQIVNRLLVSNGVTTVVLDHQANQVDNMRQIGTRAYFGDATRPDMLHTAGIEHAAALVVAIDNQESSVELVKYVKHTYPKVKIIARAFDRGHGYLLRQAGADVIESETYHSALEMGGHAMKALGIHPFFVEQQKDTYKRVEARKSEMLYQAWEDDSEGERFDNNFRELFIQLEEKMAEEMRKDRHDKLSRSERGWTPPPKGYAENFDGENVQDITPPKEEAI | failed |
| MTGKEEISSKYDDYSLKEVPKDSRYGFFNVFLVFSSVYGAIAVIWAGGALGYGLTFSQAIIAVLSGTVVLGILGSLTAAVGAYSGLSTYVMWRHPLGRWGGKIAGLLLITITTGIGWYAVETWLFGIVMSEIFPNNPFFSVGVAAIWGGILMTIMTYVGYRMLSFLSYFTIPFHIWLIAIGIAIVLALKGGFHTVMAAVPTSHMSLLDGISATIGLYSAGTIISPDISRFAKSAKDAGYAWFAHIIFLYPFLILGGVAIVLATGSYLITNAMLELGMGVGVLLIIVFGQFIINTDNLYSGSLSLVNLIPMRREIASVINGVIGTAIAAYVGFSAGSSITPFENFISLLGDFLPAMGGIVLADFYIVKKYVNKIQDPHKRYEFVPNNKYYNINIAGILALALGSIIGYFVNAGIPAINSLVTGFLSYIIIYYIIKAMGKSPEILPFNYEGGILR | failed |
| MTGKKRSASSSRWLQEHFSDKYVQQAQKKGLRSRAWFKLDEIQQSDKLFKPGMTVVDLGAAPGGWSQYVVTQIGGKGRIIACDLLPMDPIVGVDFLQGDFRDELVMKALLERVGDSKVQVVMSDMAPNMSGTPAVDIPRAMYLVELALEMCRDVLAPGGSFVVKVFQGEGFDEYLREIRSLFTKVKVRKPDSSRARSREVYIVATGRKP | not failed |
| MTGLSQSQASPMQIQPGNAAFNPWTDAALDTIRDVNQALTLYAEMRVVPAHHDAFLAAIDTVSAKLRVLPGFLSLALKQMSGDSTMVKNYPETYKGVLATAYLDGVAAGTQPYFYNLFVRFADGRAARAAGFEALFETHIHPLLHAMAPRGGDGPELLAYRAVLQSVVAGDRHAIYRGAEEIRSFLRRPVELPERETVTVENHVMVPEDKHAAWEPQVAILLQVAQDTFEPQDEPSGVGLPGARDNRYYRKALSTEILRNAHADGGLRAYIMHGVWESVWDHENSHLDPRFLAAAGPVGAAAVVGPVEPFYLTRRLVVAD | not failed |
| MTGQELRQLLLDKWGYSYDVQFRRTQGKIFLQVMWKYLEQASFPMNETEYQEHLDSVANYLHALGGAVQVKTFITQTKERPRLGKAVSIPLDLGERASEWIILEHHHHHH | not failed |
| MTGSQETRITILDAMTANQIAAGEVVERPASVVKELVENSLDAAARHITVEIEGGGLQLIRVRDDGRGIEPEDAPLAFARHATSKIRRAADLARITTLGFRGEALASIAAVARVEMATRPPGRPGGTLVRVAGGKPPEVTETGCPPGTSVTVKDLFYNTPARRQYLKKPSTEARAIVATVERLALGHPGVAFSLSLDGRRSLATPGNGDLQAVLAALYGLEIGRELLPFNGSGAGWSLHGFTSPPWLHRSNRDQQVLLINGRYITNRLLTWAIESCYRNVIPAGRHPLFVLHLAVDPGEVDVNVHPAKLEVRLQREQDLARQVTNLVKGALFTPRAVAPATISRSGDRKGAGSAPPVQQGFTFREPDKQARYWGEYVLRERARENREPEWPEKTGENTGAIKTREVPEGNGPVERDKPDPIGPETPAEETGKQVLPPLRALGQVFNTYILAGGEDGLYIIDQHAAHERCRYEALVKEGTPGSHPAQMLEPPLPLHLAPDMQVKLIDQIITLRELGFIIEEFGTGVFLLRSVPLGIPPGKEREVLEDFLAESTLPAPERLLKLIACHGAIKAGQSLAGAEMQKLLDDLRGVDHPYTCPHGRPAVVRLDEAQLARYFHRHLK | failed |
| MTGTPQRSHPQPERTFVTIDFAALPDDFLWGTATSAYQIEGAVAEDGRSPSIWDTFSHTPGKIDNGDHGDVACDHYHRTHEDIELMRRLGTNAYRLSVAWPRVVPGGDGPVNAKGLAFYDRLVDDLLAAGITPSVTLYHWDLPQVLQDRGGWPERDTAEHFAAYAAVVAERLGDRVAHWATLNEPLCSAWIGHLEGKMAPGQTDLTAAVRASYHLLLGHGLAMQAIRAAAPDAQVGIVNNLSTIHAATDREEDLAAARRMDGHTNRWWLDPVHGRGFPQDMREVYGVELPERPGDMRLIGAELDWLGLNYYFPQTVAADPTGPAPQVRTVRRAGVPRTGMDWEIDAGGIEELLLRLTEEYGPRKLYVTENGSSFPDLVRPDGSVDDPERQEYLTAHLAACASAARKGAPLAGYFAWSLLDNFEWAYGYDKRFGLVHVDYATQVRTIKGSGHHYADIIGRARGRERKAA | failed |
| MTGTRIAIGICTFRRPGIAATLASLGALRWPEGMSGLVIVADNDETPSARETVHAAAKGLPLPVCYLHAPARNISVARNAILEAAGARGLERLAFLDDDEMVEPGWIEALTEALARTGAEAVLGPVRAEHGAEAPAWMRESAIHDTRPTFLPDGSIKSGYSCNVLMDLTAPALEGLRFDPERGRSGGEDTAFFEAMLRRGGRLGFAPDALVRETVPADRARLGWLLRRRFRMGQTHASLIAGPGRAQRAKQALVALSKVAACSGMALAAVHDPLRRNNALLRGALHVGTLSALFGARPITIYGGTGPAPSTFDSKTDSYLVSRSRT | failed |
